Test results reported in US20140274782A1, “AFFINITY REAGENTS AND METHODS FOR DETECTION, PURIFICATION, AND PROTEOMIC ANALYSIS OF METHYLATED PROTEINS” (The Board of Trustees of the Leland Stanford Junior …, priority 2013, published 2014).

T1: G9a and GLP (Homo sapiens, UniProt Q96KQ7+Q9H9B1)
T1 sequence (Q96KQ7 2-1210 limits assumed): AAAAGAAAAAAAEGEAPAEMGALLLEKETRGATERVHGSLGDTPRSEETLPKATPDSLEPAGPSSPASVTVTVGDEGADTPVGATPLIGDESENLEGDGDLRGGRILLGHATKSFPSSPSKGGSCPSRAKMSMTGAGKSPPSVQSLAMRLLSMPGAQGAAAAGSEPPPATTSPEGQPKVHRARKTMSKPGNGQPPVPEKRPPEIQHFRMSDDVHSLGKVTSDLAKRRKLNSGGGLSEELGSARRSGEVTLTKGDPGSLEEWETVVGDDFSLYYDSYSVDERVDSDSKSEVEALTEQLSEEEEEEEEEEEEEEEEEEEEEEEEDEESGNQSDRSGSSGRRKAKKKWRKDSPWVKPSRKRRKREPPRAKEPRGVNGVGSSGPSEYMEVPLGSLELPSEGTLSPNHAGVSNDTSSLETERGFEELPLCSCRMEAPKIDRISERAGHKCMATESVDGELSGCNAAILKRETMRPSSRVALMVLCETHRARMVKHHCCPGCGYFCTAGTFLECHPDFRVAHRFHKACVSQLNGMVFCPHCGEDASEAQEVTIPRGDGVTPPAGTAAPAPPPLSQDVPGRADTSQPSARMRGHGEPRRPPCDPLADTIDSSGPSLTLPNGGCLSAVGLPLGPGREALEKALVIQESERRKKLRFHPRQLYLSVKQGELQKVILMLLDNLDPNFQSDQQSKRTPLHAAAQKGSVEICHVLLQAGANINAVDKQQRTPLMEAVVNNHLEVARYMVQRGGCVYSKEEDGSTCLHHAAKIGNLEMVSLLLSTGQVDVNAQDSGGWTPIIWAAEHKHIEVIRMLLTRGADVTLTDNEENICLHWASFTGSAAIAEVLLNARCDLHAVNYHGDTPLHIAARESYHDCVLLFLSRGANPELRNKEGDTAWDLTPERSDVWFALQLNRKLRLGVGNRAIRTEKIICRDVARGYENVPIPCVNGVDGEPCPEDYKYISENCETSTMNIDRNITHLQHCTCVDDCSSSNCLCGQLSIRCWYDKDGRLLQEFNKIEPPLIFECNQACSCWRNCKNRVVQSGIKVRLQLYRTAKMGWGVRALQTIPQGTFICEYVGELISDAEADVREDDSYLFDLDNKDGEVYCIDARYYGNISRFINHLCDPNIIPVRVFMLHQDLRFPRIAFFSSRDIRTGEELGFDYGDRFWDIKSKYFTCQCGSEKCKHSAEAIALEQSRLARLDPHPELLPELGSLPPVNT
T1 sequence (Q9H9B1 2-1298 limits assumed): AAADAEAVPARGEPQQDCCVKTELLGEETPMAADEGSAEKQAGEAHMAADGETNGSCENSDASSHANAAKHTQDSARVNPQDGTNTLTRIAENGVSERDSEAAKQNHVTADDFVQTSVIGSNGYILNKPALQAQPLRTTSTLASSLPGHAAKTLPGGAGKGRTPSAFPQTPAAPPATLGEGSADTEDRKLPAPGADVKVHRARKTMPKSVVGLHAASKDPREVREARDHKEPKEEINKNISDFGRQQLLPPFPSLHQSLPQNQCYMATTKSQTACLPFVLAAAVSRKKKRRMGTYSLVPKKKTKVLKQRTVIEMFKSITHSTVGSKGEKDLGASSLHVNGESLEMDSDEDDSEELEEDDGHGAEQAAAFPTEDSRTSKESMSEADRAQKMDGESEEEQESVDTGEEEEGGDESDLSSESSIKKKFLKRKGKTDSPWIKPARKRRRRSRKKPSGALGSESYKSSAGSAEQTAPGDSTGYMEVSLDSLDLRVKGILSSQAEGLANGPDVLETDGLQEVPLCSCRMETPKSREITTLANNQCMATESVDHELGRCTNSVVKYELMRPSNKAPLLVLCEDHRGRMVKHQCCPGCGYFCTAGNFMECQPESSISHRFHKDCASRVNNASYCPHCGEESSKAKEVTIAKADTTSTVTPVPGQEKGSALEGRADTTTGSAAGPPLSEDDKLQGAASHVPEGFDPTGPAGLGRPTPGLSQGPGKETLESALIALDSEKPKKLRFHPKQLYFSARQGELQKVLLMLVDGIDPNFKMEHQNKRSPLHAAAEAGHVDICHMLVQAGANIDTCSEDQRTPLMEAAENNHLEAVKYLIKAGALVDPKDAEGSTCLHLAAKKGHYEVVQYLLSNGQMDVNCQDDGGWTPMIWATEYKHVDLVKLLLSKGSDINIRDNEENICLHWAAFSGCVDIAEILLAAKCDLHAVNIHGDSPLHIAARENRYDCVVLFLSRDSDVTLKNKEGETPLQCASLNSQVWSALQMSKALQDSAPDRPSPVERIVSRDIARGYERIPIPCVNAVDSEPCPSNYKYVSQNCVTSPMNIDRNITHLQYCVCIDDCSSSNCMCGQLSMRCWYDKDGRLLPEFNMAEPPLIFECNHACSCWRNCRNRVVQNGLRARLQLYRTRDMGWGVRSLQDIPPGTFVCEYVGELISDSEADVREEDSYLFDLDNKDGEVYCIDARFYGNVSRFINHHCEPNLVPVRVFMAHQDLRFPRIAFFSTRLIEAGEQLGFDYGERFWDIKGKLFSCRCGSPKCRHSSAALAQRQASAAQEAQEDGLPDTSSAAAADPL

B1: ZNF598 (protein, UniProt Q86UK7 1-904, looked up)
E3 ubiquitin-protein ligase …: MAAAGGAEGRRAALEAAAAAAPERGGGSCVLCCGDLEATALGRCDHPVCYRCSTKMRVLCEQRYCAVCREELRQVVFGKKLPAFATIPIHQLQHEKKYDIYFADGKVYALYRQLLQHECPRCPELPPFSLFGDLEQHMRRQHELFCCRLCLQHLQIFTYERKWYSRKDLARHRMQGDPDDTSHRGHPLCKFCDERYLDNDELLKHLRRDHYFCHFCDSDGAQDYYSDYAYLREHFREKHFLCEEGRCSTEQFTHAFRTEIDLKAHRTACHSRSRAEARQNRHIDLQFSYAPRHSRRNEGVVGGEDYEEVDRYSRQGRVARAGTRGAQQSRRGSWRYKREEEDREVAAAVRASVAAQQQEEARRSEDQEEGGRPKKEEAAARGPEDPRGPRRSPRTQGEGPGPKETSTNGPVSQEAFSVTGPAAPGCVGVPGALPPPSPKLKDEDFPSLSASTSSSCSTAATPGPVGLALPYAIPARGRSAFQEEDFPALVSSVPKPGTAPTSLVSAWNSSSSSKKVAQPPLSAQATGSGQPTRKAGKGSRGGRKGGPPFTQEEEEDGGPALQELLSTRPTGSVSSTLGLASIQPSKVGKKKKVGSEKPGTTLPQPPPATCPPGALQAPEAPASRAEGPVAVVVNGHTEGPAPARSAPKEPPGLPRPLGSFPCPTPQEDFPALGGPCPPRMPPPPGFSAVVLLKGTPPPPPPGLVPPISKPPPGFSGLLPSPHPACVPSPATTTTTKAPRLLPAPRAYLVPENFRERNLQLIQSIRDFLQSDEARFSEFKSHSGEFRQGLISAAQYYKSCRDLLGENFQKVFNELLVLLPDTAKQQELLSAHTDFCNREKPLSTKSKKNKKSAWQATTQQAGLDCRVCPTCQQVLAHGDASSHQALHAARDDDFPSLQAIARIIT
B2: PRPF40A (protein, UniProt O75400 1-957, looked up)
Pre-mRNA-processing factor 40 …: MRPGTGAERGGLMVSEMESHPPSQGPGDGERRLSGSSLCSGSWVSADGFLRRRPSMGHPGMHYAPMGMHPMGQRANMPPVPHGMMPQMMPPMGGPPMGQMPGMMSSVMPGMMMSHMSQASMQPALPPGVNSMDVAAGTASGAKSMWTEHKSPDGRTYYYNTETKQSTWEKPDDLKTPAEQLLSKCPWKEYKSDSGKPYYYNSQTKESRWAKPKELEDLEGYQNTIVAGSLITKSNLHAMIKAEESSKQEECTTTSTAPVPTTEIPTTMSTMAAAEAAAAVVAAAAAAAAAAAAANANASTSASNTVSGTVPVVPEPEVTSIVATVVDNENTVTISTEEQAQLTSTPAIQDQSVEVSSNTGEETSKQETVADFTPKKEEEESQPAKKTYTWNTKEEAKQAFKELLKEKRVPSNASWEQAMKMIINDPRYSALAKLSEKKQAFNAYKVQTEKEEKEEARSKYKEAKESFQRFLENHEKMTSTTRYKKAEQMFGEMEVWNAISERDRLEIYEDVLFFLSKKEKEQAKQLRKRNWEALKNILDNMANVTYSTTWSEAQQYLMDNPTFAEDEELQNMDKEDALICFEEHIRALEKEEEEEKQKSLLRERRRQRKNRESFQIFLDELHEHGQLHSMSSWMELYPTISSDIRFTNMLGQPGSTALDLFKFYVEDLKARYHDEKKIIKDILKDKGFVVEVNTTFEDFVAIISSTKRSTTLDAGNIKLAFNSLLEKAEAREREREKEEARKMKRKESAFKSMLKQAAPPIELDAVWEDIRERFVKEPAFEDITLESERKRIFKDFMHVLEHECQHHHSKNKKHSKKSKKHHRKRSRSRSGSDSDDDDSHSKKKRQRSESRSASEHSSSAESERSYKKSKKHKKKSKKRRHKSDSPESDAEREKDKKEKDRESEKDRTRQRSESKHKSPKKKTGKDSGNWDTSGSELSEGELEKRRRTLLEQLDDDQ
B3: CNBP (protein, UniProt P62633 2-177, looked up)
CCHC-type zinc finger nucleic …: SSNECFKCGRSGHWARECPTGGGRGRGMRSRGRGGFTSDRGFQFVSSSLPDICYRCGESGHLAKDCDLQEDACYNCGRGGHIAKDCKEPKREREQCCYNCGKPGHLARDCDHADEQKCYSCGEFGHIQKDCTKVKCYRCGETGHVAINCSKTSEVNCYRCGESGHLARECTIEATA
B4: RBM3 (protein, UniProt P98179 1-157, looked up)
RNA-binding protein 3: MSSEEGKLFVGGLNFNTDEQALEDHFSSFGPISEVVVVKDRETQRSRGFGFITFTNPEHASVAMRAMNGESLDGRQIRVDHAGKSARGTRGGGFGAHGRGRSYSRGGGDQGYGSGRYYDSRPGGYGYGYGRSRDYNGRNQGGYDRYSGGNYRDNYDN

Each molecule was assayed on 3×MBT domain of L3MBTL1 (assay: Triple SILAC pull-down, 3xMBT/3xMBTD355N ratio (cytoplasmic, nuclear and chromatin fractions of 293T cells)). Conditions: SILAC ratio, pull-down 3xMBT vs 3xMBTD355N; experiment with UNC0638 in heavy SILAC media.
Format: binding, human
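For 3xMBT/D355N UNC Heavy in this document: proteins quantified with MaxQuant, requiring at least two unique peptides and quantification in both label directions, normalized to the mean of proteins from a digested loading control.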
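For 3xMBT/D355N UNC Light in this document: proteins quantified with MaxQuant, requiring at least two unique peptides and quantification in both label directions, normalized to the mean of proteins from a digested loading control.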
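For Relative to UNC0638 Average in this document: mass spectrometry (Q-Exactive) SILAC quantitation, DMSO/UNC0638 ratio computed after subtracting 3×MBTD355N mutant pull-down background, only proteins with at least twofold 3×MBT over mutant signal considered.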
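For Relative to UNC0638 UNC Heavy in this document: mass spectrometry (Q-Exactive) SILAC quantitation, DMSO/UNC0638 ratio computed after subtracting 3×MBTD355N mutant pull-down background, only proteins with at least twofold 3×MBT over mutant signal considered.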
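For Relative to UNC0638 UNC Light in this document: mass spectrometry (Q-Exactive) SILAC quantitation, DMSO/UNC0638 ratio computed after subtracting 3×MBTD355N mutant pull-down background, only proteins with at least twofold 3×MBT over mutant signal considered.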

Row | Molecule | 3xMBT/D355N UNC Heavy [log base 2]
1 | B1 | 1.92
2 | B2 | 3.54
3 | B3 | 1.05
4 | B4 | 3.49

Same assay, conditions: SILAC ratio, pull-down 3xMBT vs 3xMBTD355N; experiment with UNC0638 in light SILAC media

Row | Molecule | 3xMBT/D355N UNC Light [log base 2]
5 | B1 | 3.58
6 | B2 | 2.13
7 | B3 | 1.79
8 | B4 | 3.25

What follows are molecules tested against T1, G9a and GLP (assay: Triple SILAC pull-down after UNC0638 treatment of 293T cells, DMSO/UNC0638 ratio of protein captured by 3×MBT). Conditions: SILAC ratio DMSO/UNC0638 of protein pulled down with 3xMBT; UNC0638 in heavy SILAC media.
Format: cell-based
Design: cells were treated for 24 hours with UNC0638 at 2.5 μM or DMSO vehicle control; endogenous in cells; host or cells: HEK 293T

Row | Molecule | Relative to UNC0638 UNC Heavy [log base 2]
9 | B1 | 0.52
10 | B2 | 0.33
11 | B3 | 0.51
12 | B4 | 0.24

Same assay, conditions: SILAC ratio DMSO/UNC0638 of protein pulled down with 3xMBT; UNC0638 in light SILAC media

Row | Molecule | Relative to UNC0638 UNC Light [log base 2]
13 | B1 | 0.06
14 | B2 | 0.24
15 | B3 | 0.05
16 | B4 | 0.33

Same assay, conditions: average of UNC Light and UNC Heavy experiments

Row | Molecule | Relative to UNC0638 Average [log base 2]
17 | B1 | 0.29
18 | B2 | 0.29
19 | B3 | 0.28
20 | B4 | 0.29
